Legend:
[1] = tested on: AncSZ; experiment: phosphorylation enrichment, bacterial display (enrichment ratio); higher = better substrate or ligand; peptides without Tyr show the background
[2] = biological target: EPHB1 (UniProt P54762); experiment: as above
[3] = biological target: EPHB2 (UniProt P29323); experiment: as above
[4] = biological target: FGFR1 (UniProt P11362); experiment: as above
[5] = biological target: FGFR3 (UniProt P22607); experiment: as above
[6] = tested on: Fer (mouse); experiment: as above
[7] = biological target: Fes (UniProt P07332); experiment: as above
[8] = biological target: Fyn (UniProt P06241); experiment: as above
[9] = biological target: Hck (UniProt P08631); experiment: as above
[10] = biological target: Jak2 (UniProt O60674); experiment: as above
[11] = biological target: MERTK (UniProt Q12866); experiment: as above
[12] = tested on: c-Abl (mouse); experiment: as above
[13] = tested on: c-Src; experiment: as above
[14] = biological target: Grb2 SH2 (UniProt P62993); experiment: SH2 binding enrichment of the phosphorylated peptide, bacterial display (enrichment ratio); higher = better substrate or ligand; peptides without Tyr show the background
[15] = biological target: SHP2-C SH2; experiment: as above
[16] = biological target: c-Src SH2; experiment: as above
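Wherever SH2 binding enrichment of the phosphorylated peptide, bacterial display is given: peptide library displayed on the E. coli surface as eCPX fusions, selected cells deep-sequenced, score is each peptide's frequency after selection divided by its frequency in the input.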
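Wherever phosphorylation enrichment, bacterial display is given: 11-residue human phosphosite peptides and single-mutation variants displayed on the E. coli surface, counted by deep sequencing, each peptide's frequency after selection divided by its frequency in the unselected input library; frequency after pTyr selection over input frequency; kinase dosed for 20-30% of maximal phosphorylation in three min.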

Sequence of EPHB2 (P29323 whole entry, looked up): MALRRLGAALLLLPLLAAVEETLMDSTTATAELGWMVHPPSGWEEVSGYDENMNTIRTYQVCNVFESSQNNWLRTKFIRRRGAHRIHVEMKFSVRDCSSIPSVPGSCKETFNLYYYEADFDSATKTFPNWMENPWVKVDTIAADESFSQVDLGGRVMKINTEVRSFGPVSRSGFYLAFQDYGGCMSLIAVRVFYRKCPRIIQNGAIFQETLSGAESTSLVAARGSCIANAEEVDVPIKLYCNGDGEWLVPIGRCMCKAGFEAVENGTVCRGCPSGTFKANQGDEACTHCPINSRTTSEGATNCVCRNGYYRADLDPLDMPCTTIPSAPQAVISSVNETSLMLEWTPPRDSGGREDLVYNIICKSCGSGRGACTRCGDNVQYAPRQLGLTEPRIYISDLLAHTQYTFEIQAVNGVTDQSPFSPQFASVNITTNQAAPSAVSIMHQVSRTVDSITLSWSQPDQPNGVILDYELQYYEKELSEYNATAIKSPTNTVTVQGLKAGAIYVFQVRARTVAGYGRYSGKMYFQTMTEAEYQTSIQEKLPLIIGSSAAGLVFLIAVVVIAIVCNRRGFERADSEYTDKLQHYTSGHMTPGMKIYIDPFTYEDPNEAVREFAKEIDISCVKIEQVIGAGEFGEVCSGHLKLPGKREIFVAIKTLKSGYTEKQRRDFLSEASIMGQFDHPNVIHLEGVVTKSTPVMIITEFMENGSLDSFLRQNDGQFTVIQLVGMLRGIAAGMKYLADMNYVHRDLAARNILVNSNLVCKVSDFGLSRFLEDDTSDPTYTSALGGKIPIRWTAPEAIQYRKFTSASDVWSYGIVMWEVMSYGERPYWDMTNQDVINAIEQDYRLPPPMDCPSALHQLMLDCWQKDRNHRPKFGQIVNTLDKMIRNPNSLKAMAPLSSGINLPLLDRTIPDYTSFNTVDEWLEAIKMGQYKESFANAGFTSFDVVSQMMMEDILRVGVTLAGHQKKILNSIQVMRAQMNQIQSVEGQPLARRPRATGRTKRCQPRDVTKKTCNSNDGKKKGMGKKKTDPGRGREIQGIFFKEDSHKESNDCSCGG
Sequence of Grb2 SH2 (P62993 whole entry, looked up): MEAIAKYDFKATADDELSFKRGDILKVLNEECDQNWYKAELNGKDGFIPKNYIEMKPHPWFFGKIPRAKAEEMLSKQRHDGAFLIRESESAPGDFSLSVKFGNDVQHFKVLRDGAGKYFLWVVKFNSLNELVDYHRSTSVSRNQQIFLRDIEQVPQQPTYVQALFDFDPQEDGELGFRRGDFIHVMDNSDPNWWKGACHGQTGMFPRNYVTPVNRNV
Sequence of MERTK (Q12866 whole entry, looked up): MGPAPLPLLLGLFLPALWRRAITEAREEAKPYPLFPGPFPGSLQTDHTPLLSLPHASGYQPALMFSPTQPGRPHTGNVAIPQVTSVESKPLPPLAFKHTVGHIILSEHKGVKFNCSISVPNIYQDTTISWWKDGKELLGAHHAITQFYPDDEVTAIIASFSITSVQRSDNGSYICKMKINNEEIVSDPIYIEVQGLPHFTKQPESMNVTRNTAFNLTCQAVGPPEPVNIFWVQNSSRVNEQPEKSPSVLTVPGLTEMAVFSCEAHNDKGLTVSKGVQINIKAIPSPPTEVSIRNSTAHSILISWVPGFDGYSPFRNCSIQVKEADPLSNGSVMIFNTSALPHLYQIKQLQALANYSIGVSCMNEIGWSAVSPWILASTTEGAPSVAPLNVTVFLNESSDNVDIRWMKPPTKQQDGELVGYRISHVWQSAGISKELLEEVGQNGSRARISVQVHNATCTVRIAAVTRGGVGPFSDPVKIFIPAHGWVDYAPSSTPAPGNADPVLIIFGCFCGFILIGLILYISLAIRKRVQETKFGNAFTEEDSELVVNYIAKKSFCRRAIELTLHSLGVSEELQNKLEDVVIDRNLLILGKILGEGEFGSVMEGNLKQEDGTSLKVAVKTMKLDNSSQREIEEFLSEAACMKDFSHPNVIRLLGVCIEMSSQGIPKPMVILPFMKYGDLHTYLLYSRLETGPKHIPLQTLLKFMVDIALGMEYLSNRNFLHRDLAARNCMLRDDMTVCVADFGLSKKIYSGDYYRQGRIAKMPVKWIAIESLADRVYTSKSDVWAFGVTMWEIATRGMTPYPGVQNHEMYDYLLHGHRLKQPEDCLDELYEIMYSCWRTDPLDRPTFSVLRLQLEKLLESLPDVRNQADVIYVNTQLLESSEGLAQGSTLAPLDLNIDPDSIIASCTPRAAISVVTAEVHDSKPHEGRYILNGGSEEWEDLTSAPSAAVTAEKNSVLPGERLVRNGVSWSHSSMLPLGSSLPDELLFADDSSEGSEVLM
Sequence of Fes (P07332 whole entry, looked up): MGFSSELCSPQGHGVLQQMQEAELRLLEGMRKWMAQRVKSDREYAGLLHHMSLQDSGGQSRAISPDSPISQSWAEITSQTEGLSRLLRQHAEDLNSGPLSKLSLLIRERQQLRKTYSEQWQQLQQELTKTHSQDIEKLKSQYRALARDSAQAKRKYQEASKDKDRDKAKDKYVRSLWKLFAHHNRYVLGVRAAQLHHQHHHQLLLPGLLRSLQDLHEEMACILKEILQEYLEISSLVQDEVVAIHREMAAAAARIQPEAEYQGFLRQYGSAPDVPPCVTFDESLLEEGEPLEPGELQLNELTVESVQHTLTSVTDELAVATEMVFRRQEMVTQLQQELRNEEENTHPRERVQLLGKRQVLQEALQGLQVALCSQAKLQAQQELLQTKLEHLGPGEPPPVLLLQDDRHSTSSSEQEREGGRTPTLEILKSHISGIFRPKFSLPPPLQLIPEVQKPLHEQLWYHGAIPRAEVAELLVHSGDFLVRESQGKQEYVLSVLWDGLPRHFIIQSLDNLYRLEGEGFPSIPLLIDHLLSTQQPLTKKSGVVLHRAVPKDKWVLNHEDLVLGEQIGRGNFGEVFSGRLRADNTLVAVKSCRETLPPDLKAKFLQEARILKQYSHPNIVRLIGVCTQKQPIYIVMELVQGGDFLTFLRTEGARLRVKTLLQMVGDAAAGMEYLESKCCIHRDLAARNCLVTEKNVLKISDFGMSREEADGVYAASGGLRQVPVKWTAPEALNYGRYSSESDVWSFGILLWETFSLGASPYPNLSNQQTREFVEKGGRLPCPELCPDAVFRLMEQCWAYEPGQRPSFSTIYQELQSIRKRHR
Sequence of Hck (P08631 whole entry, looked up): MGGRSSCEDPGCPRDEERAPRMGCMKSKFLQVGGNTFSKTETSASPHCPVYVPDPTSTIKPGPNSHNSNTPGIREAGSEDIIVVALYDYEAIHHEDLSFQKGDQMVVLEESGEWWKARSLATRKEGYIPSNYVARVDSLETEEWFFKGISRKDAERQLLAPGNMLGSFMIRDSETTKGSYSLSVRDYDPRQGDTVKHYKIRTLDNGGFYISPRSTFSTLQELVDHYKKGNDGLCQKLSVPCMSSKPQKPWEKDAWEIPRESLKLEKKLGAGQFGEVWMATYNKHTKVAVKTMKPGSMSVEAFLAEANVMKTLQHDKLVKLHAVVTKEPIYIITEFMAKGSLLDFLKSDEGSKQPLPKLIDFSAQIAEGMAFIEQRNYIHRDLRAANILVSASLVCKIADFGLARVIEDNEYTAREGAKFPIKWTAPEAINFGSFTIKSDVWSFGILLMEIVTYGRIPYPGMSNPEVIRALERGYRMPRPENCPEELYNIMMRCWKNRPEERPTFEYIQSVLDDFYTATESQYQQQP
Sequence of EPHB1 (P54762 whole entry, looked up): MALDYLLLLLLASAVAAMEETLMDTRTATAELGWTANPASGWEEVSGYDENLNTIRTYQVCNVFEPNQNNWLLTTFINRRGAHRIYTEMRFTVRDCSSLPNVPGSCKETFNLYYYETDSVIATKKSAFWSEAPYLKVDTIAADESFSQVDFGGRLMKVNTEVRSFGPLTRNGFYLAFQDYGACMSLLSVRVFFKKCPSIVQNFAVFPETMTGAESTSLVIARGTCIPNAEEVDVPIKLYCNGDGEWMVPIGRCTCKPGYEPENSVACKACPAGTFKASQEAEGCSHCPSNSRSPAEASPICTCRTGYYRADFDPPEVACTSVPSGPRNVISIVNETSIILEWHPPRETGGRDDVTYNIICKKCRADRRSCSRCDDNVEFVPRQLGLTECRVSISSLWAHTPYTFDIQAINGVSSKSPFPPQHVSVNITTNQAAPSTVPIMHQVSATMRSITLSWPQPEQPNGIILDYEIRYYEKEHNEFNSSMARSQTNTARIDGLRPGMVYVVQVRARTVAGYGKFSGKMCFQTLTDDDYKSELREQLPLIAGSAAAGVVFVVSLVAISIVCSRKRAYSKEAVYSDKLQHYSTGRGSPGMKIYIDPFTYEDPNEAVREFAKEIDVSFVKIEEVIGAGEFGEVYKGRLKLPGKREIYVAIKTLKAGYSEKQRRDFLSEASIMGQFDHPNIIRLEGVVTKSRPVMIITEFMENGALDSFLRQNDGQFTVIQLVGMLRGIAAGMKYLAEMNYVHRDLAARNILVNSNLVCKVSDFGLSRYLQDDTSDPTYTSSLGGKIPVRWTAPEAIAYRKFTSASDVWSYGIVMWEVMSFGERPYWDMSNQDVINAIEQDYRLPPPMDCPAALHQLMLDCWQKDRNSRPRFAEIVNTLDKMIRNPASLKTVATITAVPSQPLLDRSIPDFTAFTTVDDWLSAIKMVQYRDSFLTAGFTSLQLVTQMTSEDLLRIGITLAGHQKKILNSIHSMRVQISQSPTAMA

Sequence	phosphorylation enrichment [1]	phosphorylation enrichment [2]	phosphorylation enrichment [3]	phosphorylation enrichment [4]	phosphorylation enrichment [5]	phosphorylation enrichment [6]	phosphorylation enrichment [7]	phosphorylation enrichment [8]	phosphorylation enrichment [9]	phosphorylation enrichment [10]	phosphorylation enrichment [11]	phosphorylation enrichment [12]	phosphorylation enrichment [13]	SH2 binding enrichment [14]	SH2 binding enrichment [15]	SH2 binding enrichment [16]
FGSSSSGGAGG [RPA2_Y14_Y14S_YF]	0.499	0.287	0.31	0.409	0.455	0.417	0.638	0.419	0.312	0.669	0.394	0.511	0.458	0.854	0.622	0.358
PQDVTYAQLHS [LILRB4_Y412]	0.959	1.22	0.999	0.351	0.75	0.685	1.22	4.37	6.52	0.786	0.645	0.815	2.8	0.56	1.52	0.973
PFTRNYFVWAV [CYBA_Y87_R90W_YF]	4.23	3.63	3.07	13.5	10.9	1.97	4.28	1.56	1.92	7.13	9.74	4.62	1.27	0.939	0.771	0.534
EWKNNCPRLRE [OPA1_Y582_Y582C]	0.9	0.492	0.582	0.508	0.654	0.433	1.13	0.395	0.472	0.81	0.415	0.592	0.411	0.916	0.571	0.562
VQVAFYTMMMN [SPATA17_Y84_YF]	1.63	1.3	1.15	1.84	1.99	1.81	1.51	0.652	0.769	1.6	3.02	1.03	0.956	0.816	0.814	0.721
SARFHYLMAEK [LDHB_Y173_R172H]	0.666	0.463	0.403	0.445	0.751	0.473	0.661	0.564	0.455	0.455	0.499	0.372	0.403	0.957	0.601	0.455
SFCFRYRCAAQ [SUMF1_Y344_R349Q_YF]	1.25	0.427	0.523	0.47	0.463	0.402	0.762	0.411	0.514	0.745	0.553	0.682	0.555	1.52	2.02	1.45
TKQLTYEEQFL [PIK3C3_Y310_D314Y_YF]	1.1	0.611	0.622	0.497	0.65	1.03	1.08	0.509	0.419	0.861	0.502	0.661	0.5	0.98	0.767	0.698
EGVPLYESATT [DCC_Y809]	1.12	4.19	4.87	0.475	0.775	7.75	1.07	1.09	2.05	0.988	0.638	0.831	1.14	0.731	0.489	0.57
KDFTKYVAFIE [KDM4B_Y31_N29T_YF]	0.849	0.55	0.626	0.442	0.623	0.422	1.06	0.521	0.462	0.879	0.481	0.614	0.457	0.894	1.79	0.674
FDNPIYQKTTE [LDLR_Y828_V827I]	0.833	1.16	1.18	0.543	0.49	1.59	0.751	1.1	2.76	0.681	2.38	1.82	1.44	1.03	0.966	0.632
WGLRSYFETSK [MAGED2_Y448_YF]	0.967	0.553	0.594	0.536	0.645	0.42	1.08	0.526	0.489	1.04	0.385	0.517	0.32	1.08	1.53	0.882
SVMAEYGLFGA [VSX2_Y219_YF]	0.737	0.477	0.596	0.488	0.553	0.424	0.774	7.22	2.94	0.679	0.475	0.594	6.17	0.86	0.719	0.471
RVFIKYLPEWT [PSEN1_Y240_L235R]	2.32	1.15	1.34	0.966	1.32	1.02	2.8	0.735	0.944	1.71	0.678	1.13	0.855	1.33	1.19	0.906
